How the values were obtained:
[1] = target: T1, human TNFR2 expressed on cells (human, UniProt P20333 23-461); test: flow cytometry on CHO cells expressing human TNFR2
T1 construct: whole, on cells; also called hTNFR2 (cell); CHO-TNFR2
T1 sequence (looked up): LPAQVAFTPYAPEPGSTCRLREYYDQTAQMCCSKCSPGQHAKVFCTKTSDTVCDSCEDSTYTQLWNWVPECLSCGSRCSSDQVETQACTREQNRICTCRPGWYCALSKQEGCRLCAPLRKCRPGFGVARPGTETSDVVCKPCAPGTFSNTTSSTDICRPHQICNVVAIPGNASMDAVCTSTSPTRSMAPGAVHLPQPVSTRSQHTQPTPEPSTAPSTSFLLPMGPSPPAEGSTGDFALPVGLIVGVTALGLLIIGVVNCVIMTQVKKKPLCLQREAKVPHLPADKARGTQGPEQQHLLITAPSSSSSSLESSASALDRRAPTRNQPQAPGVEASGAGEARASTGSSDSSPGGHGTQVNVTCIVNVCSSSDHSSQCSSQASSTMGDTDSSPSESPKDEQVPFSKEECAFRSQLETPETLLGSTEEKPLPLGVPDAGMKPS
Procedure: (§1) In FIGS. 3A-3B, human (3A) or cynomolgus (3B) TNFR2-His tagged protein was coated on 96-well ELISA plates at 1 μg/mL and incubated overnight at 4° C. Plates were washed and blocked using 1% BSA. Antibodies were added for 1 hour at room temperature (RT), washed, and detected using anti-Human HRP. Assay was developed using TMB substrate for 3-5 minutes. In FIG. 3C, FACS binding was performed on CHO cells that were engineered to express human TNFR2. Briefly, antibodies were incubated with 200,000 cells in MACS buffer for 1 hour followed by wash and detection using anti-human IgG BV421 for 20 minutes. Samples were analyzed using Cytoflex or MACSQuant flow cytometers. In FIG. 3D, ligand blocking ELISA was performed by coating plates with 1 ug/mL TNFR-Fc overnight at 4° C. Plates were washed, blocked and antibodies were incubated for 1 hr at RT. […] Assay was developed using TMB substrate for 5-7 minutes.

[2] = target: T2, cynomolgus TNFR2-His tagged protein (cynomolgus, UniProt A0A2K5VET2 132-366); test: ELISA on coated cynomolgus TNFR2-His
T2 construct: also called Cyno TNFR2; cynomolgus TNFR2 protein; not shown: His tag
T2 sequence: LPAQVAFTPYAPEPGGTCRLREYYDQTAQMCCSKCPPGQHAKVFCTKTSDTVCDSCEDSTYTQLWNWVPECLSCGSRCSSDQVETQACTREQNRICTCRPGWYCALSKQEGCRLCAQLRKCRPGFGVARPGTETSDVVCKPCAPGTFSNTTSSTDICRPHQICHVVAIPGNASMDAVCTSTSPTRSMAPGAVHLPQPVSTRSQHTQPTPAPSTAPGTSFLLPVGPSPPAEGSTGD
Procedure: as §1

[3] = target: T3, human TNFR2-His tagged protein (soluble) (human, UniProt P20333 23-257); test: ELISA on coated human TNFR2-His
T3 construct: also called hTNFR2 (soluble); soluble TNFR2-His; not shown: His tag
T3 sequence (looked up): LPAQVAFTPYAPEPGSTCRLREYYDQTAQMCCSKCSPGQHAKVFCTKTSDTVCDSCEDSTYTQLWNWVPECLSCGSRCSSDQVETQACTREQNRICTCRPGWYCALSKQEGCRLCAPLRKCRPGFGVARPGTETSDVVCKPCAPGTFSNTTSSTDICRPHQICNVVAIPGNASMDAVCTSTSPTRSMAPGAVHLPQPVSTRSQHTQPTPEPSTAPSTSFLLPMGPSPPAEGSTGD
Procedure: as §1

[4] = target: T4, TNFR-Fc (UniProt P20333 23-257, limits assumed); test: TNF-α blocking ELISA on coated TNFR-Fc
T4 construct: Printed only as TNFR-Fc; not shown: Fc part
T4 sequence (looked up): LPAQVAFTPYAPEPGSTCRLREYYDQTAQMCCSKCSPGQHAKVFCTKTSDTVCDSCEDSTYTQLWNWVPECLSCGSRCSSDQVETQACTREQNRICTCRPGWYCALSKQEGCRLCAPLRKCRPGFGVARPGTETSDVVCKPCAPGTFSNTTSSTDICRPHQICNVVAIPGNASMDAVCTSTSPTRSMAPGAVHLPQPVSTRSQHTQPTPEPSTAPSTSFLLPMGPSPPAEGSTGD
Procedure: as §1

[5] = target: T5, soluble mouse TNFR2 (mouse, UniProt P25119 23-258, limits assumed); test: binding screen on soluble mouse TNFR2 (mouse cross-reactivity)
T5 sequence (looked up): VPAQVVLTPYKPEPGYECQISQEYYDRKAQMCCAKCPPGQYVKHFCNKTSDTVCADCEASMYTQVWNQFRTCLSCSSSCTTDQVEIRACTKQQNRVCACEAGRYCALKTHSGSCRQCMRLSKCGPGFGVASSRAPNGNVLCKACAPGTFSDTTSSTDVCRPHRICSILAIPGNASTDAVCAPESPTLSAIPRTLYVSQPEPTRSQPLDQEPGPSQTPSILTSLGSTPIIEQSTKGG

B1: chimeric antibody clone 37 (rab600_25_37) (antibody, V domains shown)
VH: QSVEESGGRLVTPGTPLILTCTVSGIDLSNYAMGWFRQAPGEGLEWIGSRRTDGITYYANWAEGRFTISRTSTTVDLEITSPTTEDTATYFCGRDVGGDGGWYFNLWGPGTLVTVSS
VL: AGDMTQTPASVEVAVGGTVTIKCQASQSINIYLAWYQQKPGQPPKLLIYDASKLASGVPSRFSGSGSGTEFTLTISDLECADAATYYCQQGINNIGFGGGTEVVVK
EC50 [1]: 0.1 nM | EC50 [2]: 0.148 nM | EC50 [3]: 0.126 nM | IC50 [4]: 3.25 nM | binding result [5]: no binding

B2: chimeric antibody clone 9 (rab600_25_9) (antibody, V domains shown)
VH: QSVEESGGRLVTPGTPLTLTCTVSGFSLSTYDINWVRQAPGKGLEWIGIIYTGGITNFANWAKGRFTISKTSTTVDLKIASPTTEDTATYFCARGGYDSDGYVYPDAFDPWGPGTLVTVSS
VL: ALVMTQTPASVEADVGGTVTINCQASESISNLLAWYQQKPGQRPKLLIYRASILTSGVSSRFKGSGSGTEYTLTINGVQCADAATYYCQHGYTGTNVQNVFGGGTEVVVK
EC50 [1]: 0.147 nM | EC50 [2]: 0.151 nM | EC50 [3]: 0.144 nM | IC50 [4]: 2.78 nM | binding result [5]: no binding

B3: chimeric antibody clone 11G12.1 (rab600_23_11G12.1) (antibody, V domains shown)
VH: QSLEESGGDLVQPGASLTLTCTASGFSVNVNSYMCWVRQAPGKGLELIACIDTGSGGSTWYGSWAKGRFTISKSTNLNTVTLQMTSLTAADTATYFCARARNTYGYGDYVYGGAFDPWGPGTLVTVSS
VL: DIVMTQTPASVEAAVGGTVTIKCQASQSISSTYLSWYQQKPGQRPKLLIYQASTLASGVPSRFKGSGSGTEFTLTISDLECADAATYYCQGGYFSDNGCYNAFGGGTEVVVK
notes: also called rab600_23_HG12.1
EC50 [2]: 0.191 nM | EC50 [3]: 0.261 nM | binding result [5]: no binding

B4: chimeric antibody clone 24 (rab600_23_24) (antibody, V domains shown)
VH: QSLEESGGRLVTPGTPLTLTCTASGFSLNSYGVNWVRQAPGKGLEWIGGINTGGSTYYANWAKGRFTISKTSAMVDLKVTSPTTEDTATYVCARTSGNNVYNYFTLWGQGTLVTVSS
VL: DIVMTQTPSSVSAAVGGTVTIYCQASQSIPSLLAWYQQKSGQPPKLLIYAPSTLASGVPSRFKASGSGTQFTLTISDLECADAATYYCQSYYYGDNTYNNIFGGGTEVVVK
EC50 [1]: 0.1 nM | EC50 [2]: 0.093 nM | EC50 [3]: 0.098 nM | IC50 [4]: 3.16 nM | binding result [5]: no binding

B5: chimeric antibody clone 8G11.5 (rab600_23_8G11.5) (antibody, V domains shown)
VH: QSLEESGGRLVTPGTPLTLTCTVSGFSLNSNGMNWVRQAPGKGLEWIGGINAGGSAYYANWAKGRFTISKTSTMVDLKITSPTTEDTATYFCAKTSGINVYNYLNLWGQGTLVTVSS
VL: DIVMTQTPSPVSAAVGGTVTINCQASQSIYTALAWYQQKSGQPPKLLIYAASTLASGVPSRFKGSGSGTQFTLTISDLECADAATYYCQNYYYGDNTYNNTFGGGTEVVVK
EC50 [2]: 0.0927 nM | EC50 [3]: 0.157 nM | IC50 [4]: 24.6 nM | binding result [5]: no binding

B6: chimeric antibody clone 37D1.4 (rab600_23_37D1.4) (antibody, V domains shown)
VH: QSLEESGGRLVTPGTPLTLTCTVSGFSLNSNGMNWVRQAPGKGLEWIGGINAGGSAYYANWAKGRFTISKTSTMVDLKITSPTTEDTATYFCAKTSGINVYNYLNLWGQGTLVTVSS
VL: DIVMTQTPSPVSAAVGGTVTINCQASQSIYTALAWYQQKSGQPPKLLIYAASTLASGVPSRFKGSGSGTQFTLTISDLECADAATYYCQNYYYGDNTYNNTFGGGTEVVVK
EC50 [2]: 0.081 nM | EC50 [3]: 0.156 nM | IC50 [4]: 27.8 nM | binding result [5]: no binding

B7: chimeric antibody clone 28B7.3 (rab600_23_28B7.3) (antibody, V domains shown)
VH: QSVEESGGRLVTPGTPLTLTCTVSGFSLNSHYMIWVRQAPGKGLEYIGIITSSDYIYYARWAKGRFTISKTSSTTVDLKITSPTTEDTATYSCARYNYDDDGELFNLWGQGTLVTVSS
VL: AVLTQTPSSVSAAVGGTVTLNCQSSQSIDANNDLAWYQQKPGQPPRLLIYLASKLASGVPSRFSGSGSGTQFTLTISGVQCDDAATYYCLGGYDDDADNTFGGGTEVVVK
EC50 [1]: 0.321 nM | EC50 [2]: 0.0763 nM | EC50 [3]: 0.149 nM | IC50 [4]: 2.97 nM | binding result [5]: no binding

B8: chimeric antibody clone 37H4.1 (rab600_23_37H4.1) (antibody, V domains shown)
VH: QSVEESGGRLVTPGTPLTLTCTVSGFSLNSHYMIWVRQAPGKGLEYIGVITSSDYIYYARWAKGRFTISKTSSTTVDLKITSPTTEDTATYFCARYNYDDDGELFNLWGQGTLVTVSS
VL: AVLTQTPSSVSAAVGGTVTLNCQSSQSIDANNDLAWYQQKPGQPPKLLIYLASTRASGVPSRFKGSGSGTQFTLTISGVQCYDAATYYCLGGYDDDADNTFGGGTEVVVK
EC50 [2]: 0.195 nM | EC50 [3]: 0.184 nM | IC50 [4]: 2.92 nM | binding result [5]: no binding

B9: chimeric antibody clone 25.71 (rab600_25_71) (antibody, V domains shown)
VH: QSVEESEGRLVTPGTPLTLTCTVSGIDLSSYAMGWVRQAPGMGLEWIGDISTSGNAYYATWVKGRFTISRTSTTVDLKMASLTTADTATYFCARADYGGETYAFDPWGPGTLVTVSS
VL: DIVMTQTPASVEAAVGGTVTIKCQASQSISSYLNWYQQKPGQPPKLLIYSASTLASGVPSRFKGSGSGTQFTLTISGVECADAATYYCQQGYSDSNIDNVFGGGTEVVVK
EC50 [1]: 0.091 nM | EC50 [2]: 0.197 nM | EC50 [3]: 0.147 nM | IC50 [4]: 2.98 nM | binding result [5]: no binding

B10: chimeric antibody clone 23.71 (rab600_23_71) (antibody, V domains shown)
VH: QSVEESGGRLVTPGTSLTLTCTVSGIDLSSYAMSWVRQAQGKGLEWIGIIGDSGSTWYASWAKGRFTISKTSTTVDLKITSPTPEDTATYFCAREPDYGGYAGYGYGDLWGQGTLVTVSS
VL: IKMTQTLASVSAAVGGTGSISCQASEDIGNYVAWYQQKPGQPPKFLIYDTSHLASGVPSRFKGSRSGKEFTLTISGVQCDDAATYYCQHGYYTSDTDNTFGGGTEVVVK
EC50 [1]: 0.26 nM | EC50 [2]: 0.243 nM | EC50 [3]: 0.206 nM | IC50 [4]: 5.41 nM | binding result [5]: no binding

B11: chimeric antibody clone 8G10.7 (rab600_23_8G10.7) (antibody, V domains shown)
VH: LEQSGGGAGGGLVKPGGSLELCCKASGFTLINSHWICWVRQAPGKGLEWIGCIFAGSAGSTYYATWVSGRFTLSRDIDQNTGCLQLNSLTAADTAMYYCARDQTNTAYDPFYLNLWGQGTLVTVSS
VL: IEMTQTPFSVSAAVGGTVTINCQASENIYSSLAWYQQKPGQPPKLLIYAASDLASGVPSRFSGSGSGTEYTLTISGVQCADAATYYCQSAYSSGSDDNGFGGGTEVVVK
EC50 [2]: 0.269 nM | EC50 [3]: 0.243 nM | binding result [5]: no binding

B12: chimeric antibody clone 55F6.1 (taken as rab600_23_55F6.6) (antibody, V domains shown)
VH: QQQLEESGGDLVKPGASLTVTCTASGFSFTNNYYMCWVRQAPGKGLEWIGCIYPSIVGPTYYANWAKGRFTISKTSSTTVTLEMTSLTAADTATYFCVRDRYDDYGDYFNLWGPGTLVTVSS
VL: DIVMTQTPASVSVPVGGTVTIKCQASQSIYNYLSWYQQKPGQPPKRLIYYASTLASGVPSRFSGSGSGTEFTLTISDLECADAATYYCQSNSGVNGNRYGNAFGGGTEVVVK
EC50 [1]: 1.32 nM | EC50 [2]: 0.0862 nM | EC50 [3]: 0.124 nM | IC50 [4]: 4.35 nM | binding result [5]: no binding

From patent publication US20220372154A1 (APEXIGEN, published 2022)
